Reference: PMC4319893, “Targeting Protein-Protein Interactions with Trimeric Ligands: High Affinity Inhibitors of the MAGUK Protein Family” (PLoS ONE, 2015)

Target: PSD-95 PDZ3 (human)
Test: fluorescence polarisation; truncation study of CRIPT C-terminal peptides on PSD-95 PDZ3 and PSD-95 FL (S1 Table); probe not told

For IETAV, which affinity is on record?
The affinity was over 50 µM.
